This series concerns the molecule itself. The series is described as follows: crystal structure; GyrB43 incubated with a 15 fold molar excess of ATP and MgCl2 (hydrolysed to ADP.Pi), 50 mM Na-phosphate buffer; sitting drop, 20°C, 0.1 M tri-ammonium citrate pH 6.5, 25% PEG 2000; space group C2221, 1.8 Å; dimer by the crystallographic dyad.

B1: 43 kDa N-terminal fragment of GyrB from E. coli (GyrB43) (domain or fragment)
chain: not shown
notes: DNA gyrase subunit B (GyrB), E. coli, residues 1-392, comprising the ATPase domain (20-220) and the transducer domain (221-392); amplified from E. coli genomic DNA; By the forward primer the His6 codons follow the start ATG and are followed by the codons of S2, N3, S4, Y5; No removal of the tag is described; The dimer is formed by a crystallographic two-fold axis (one monomer per asymmetric …)
Regarding B1, the binding result is “binds”.
